Data from US20030203372A1, “Analysis method” (priority 2000, published 2003).

Tests used:
[1] = test system: primary human cell cultures (11 cell types); experiment: Custom gene array, 11 human cell types in normoxia or hypoxia for 6 hr and 18 hr; assay type: cell-based; conditions: for mRNA expression level, #1 HY 6 hr: cell type #1, hypoxia 6 hr; for mRNA expression level, #1 HY 18 hr: cell type #1, hypoxia 18 hr; for mRNA expression level, #1 NO: cell type #1, normoxia; for mRNA expression level, #2 HY 6 hr: cell type #2, hypoxia 6 hr; for mRNA expression level, #2 HY 18 hr: cell type #2, hypoxia 18 hr; for mRNA expression level, #2 NO: cell type #2, normoxia; for mRNA expression level, #3 HY 6 hr: cell type #3, hypoxia 6 hr; for mRNA expression level, #3 HY 18 hr: cell type #3, hypoxia 18 hr; for mRNA expression level, #3 NO: cell type #3, normoxia; for mRNA expression level, #4 HY 6 hr: cell type #4, hypoxia 6 hr; for mRNA expression level, #4 HY 18 hr: cell type #4, hypoxia 18 hr; for mRNA expression level, #4 NO: cell type #4, normoxia; for mRNA expression level, #5 HY 6 hr: cell type #5, hypoxia 6 hr; for mRNA expression level, #5 NO: cell type #5, normoxia; for mRNA expression level, #6 HY 6 hr: cell type #6, hypoxia 6 hr; for #6 HY 18 hr (mRNA expression level): cell type #6, hypoxia 18 hr; for mRNA expression level, #6 NO: cell type #6, normoxia; for #7 HY 6 hr (mRNA expression level): cell type #7, hypoxia 6 hr; for #7 HY 18 hr (mRNA expression level): cell type #7, hypoxia 18 hr; for #7 NO (mRNA expression level): cell type #7, normoxia; for #8 HY 6 hr (mRNA expression level): cell type #8, hypoxia 6 hr; for #8 HY 18 hr (mRNA expression level): cell type #8, hypoxia 18 hr; for #8 NO (mRNA expression level): cell type #8, normoxia; for #9 HY 6 hr (mRNA expression level): cell type #9, hypoxia 6 hr; for #9 HY 18 hr (mRNA expression level): cell type #9, hypoxia 18 hr; for #9 NO (mRNA expression level): cell type #9, normoxia; for #10 HY 6 hr (mRNA expression level): cell type #10, hypoxia 6 hr; for #10 HY 18 hr (mRNA expression level): cell type #10, hypoxia 18 hr; for #10 NO (mRNA expression level): cell type #10, normoxia; for #11 HY 6 hr (mRNA expression level): cell type #11, hypoxia 6 hr; for #11 HY 18 hr (mRNA expression level): cell type #11, hypoxia 18 hr; for #11 NO (mRNA expression level): cell type #11, normoxia; for HIGHEST FOLD CHANGE IN HYPOXIA (hr hypoxia + cell type): hypoxia/normoxia induction ratio;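 as to mRNA expression level, #1 HY 18 hr: cell type #1 is adipocyte from subcutaneous adult adipose tissue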;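 as to mRNA expression level, #1 HY 6 hr: cell type #1 is adipocyte from subcutaneous adult adipose tissue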;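 as to mRNA expression level, #1 NO: cell type #1 is adipocyte from subcutaneous adult adipose tissue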;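 as to mRNA expression level, #2 HY 18 hr: cell type #2 is fetal cardiomyocyte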;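 as to mRNA expression level, #2 HY 6 hr: cell type #2 is fetal cardiomyocyte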;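 as to mRNA expression level, #2 NO: cell type #2 is fetal cardiomyocyte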;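 as to mRNA expression level, #3 HY 6 hr: cell type #3 is human umbilical vein endothelial cells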;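 as to mRNA expression level, #3 NO: cell type #3 is human umbilical vein endothelial cells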;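 as to mRNA expression level, #4 HY 18 hr: cell type #4 is adult dermal fibroblast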;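 as to mRNA expression level, #4 HY 6 hr: cell type #4 is adult dermal fibroblast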;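 as to mRNA expression level, #4 NO: cell type #4 is adult dermal fibroblast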;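 as to mRNA expression level, #5 HY 6 hr: cell type #5 is adult hepatocyte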;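 as to mRNA expression level, #5 NO: cell type #5 is adult hepatocyte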;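 as to mRNA expression level, #6 HY 6 hr: cell type #6 is blood-derived macrophage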;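 as to mRNA expression level, #6 NO: cell type #6 is blood-derived macrophage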
Outline: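 Values are each gene's expression relative to its median over all cell types and conditions, after per-array normalisation to control genes and merging of replicate arrays. Cells were 11 human types, mostly unmodified primary cultures, kept in normoxia or exposed to hypoxia for 6 hr or 18 hr.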

human macrophages = experiment: Custom gene array, macrophages with no cytokines, IL-10 or LPS + IFN, in normoxia and hypoxia; assay type: cell-based; conditions: for mRNA EXPRESSION (experimental condition) #1: #1 no cytokines/normoxia; for mRNA EXPRESSION (experimental condition) #2: #2 no cytokines/hypoxia; for mRNA EXPRESSION (experimental condition) #3: #3 IL-10/normoxia; for mRNA EXPRESSION (experimental condition) #4: #4 IL-10/hypoxia; for mRNA EXPRESSION (experimental condition) #5: #5 LPS/IFN/normoxia; for mRNA EXPRESSION (experimental condition) #6: #6 LPS/IFN/hypoxia
Procedure: Macrophages were derived and cultured as described elsewhere in the specification. A total of 6 experimental conditions were analysed, as shown below. Where cells were treated with cytokines or hypoxia (0.1% oxygen), this was for 6 hr. Lipopolysaccharide (LPS) (from E.coli 026:B6; Sigma), gamma Interferon (IFN) and Interleukin-10 (IL-10) were all used at a final concentration of 100 ng/ml. The effect of gamma Interferon and Lipopolysaccharide is to activate macrophages, with a Th1 biased phenotype, as found in many inflammatory conditions. Interleukin-10 is a Th2 cytokine and de-activates macrophages, and suppresses their effector functions.

[2] = Table 15, referenced to the median value of that gene throughout all 6 conditions
[3] = Table 16, referenced to median of the gene over 6 conditions

Row | Molecule | mRNA expression level, #1 HY 6 hr [1] | mRNA expression level, #1 HY 18 hr [1] | mRNA expression level, #1 NO [1] | mRNA expression level, #2 HY 6 hr [1] | mRNA expression level, #2 HY 18 hr [1] | mRNA expression level, #2 NO [1] | mRNA expression level, #3 HY 6 hr [1] | mRNA expression level, #3 HY 18 hr [1] | mRNA expression level, #3 NO [1] | mRNA expression level, #4 HY 6 hr [1] | mRNA expression level, #4 HY 18 hr [1] | mRNA expression level, #4 NO [1] | mRNA expression level, #5 HY 6 hr [1] | mRNA expression level, #5 NO [1] | mRNA expression level, #6 HY 6 hr [1] | #6 HY 18 hr (mRNA expression level) [1] | mRNA expression level, #6 NO [1] | #7 HY 6 hr (mRNA expression level) [1] | #7 HY 18 hr (mRNA expression level) [1] | #7 NO (mRNA expression level) [1] | further results
1 | p1D24 (nucleic acid, listed as Homo Sapiens, EST array clone; misc_feature 112, 125, 156, 208, 224, 232, 239, 258, 270, 297, 316, 350,359: n = A,T,C or G) DNA: TTCTATCAGAAATTGTATTTATTTACCAGCATTTATGGCAAATGGCCAGACCTGGGCAGGGTGGTAGCAATGATAGATTTTACAAATTAAGGCATTGTTCTTTATTTCAAANTTTTCATTTACCNATATTTTCCTTGGTCTTAGAAATATGAATANTTTAGAGCTGGCAATACTCACCATCAGGATATAATAAACGGAGGTTTCTTTNTCCGAAATCCATAAANTGTAGTANTACTCTNTTGTACTTTTAAAATTCCNATTTTTGCAGTNGGCTTCCTCTCAGTGATTTAGTTAGGNAGTTTTGGTACATTTTGGNGGGGTCATAAACATGTTCATAGGATAGGAGTACNGGGCATTTNTGGAAAAACCCG | 0.71 | 1.39 | 0.98 | 1.98 | 2.16 | 1.55 | 1.47 | 1.01 | 1.18 | 0.49 | 0.67 | 0.74 | 1.94 | 1.53 | 0.98 | 0.96 | 0.90 | 0.79 | 0.49 | 0.71 | #8 HY 6 hr (mRNA expression level) [1]: 0.90; #8 HY 18 hr (mRNA expression level) [1]: 0.93; #8 NO (mRNA expression level) [1]: 0.53; #9 HY 6 hr (mRNA expression level) [1]: 0.51; #9 HY 18 hr (mRNA expression level) [1]: 0.43; #9 NO (mRNA expression level) [1]: 0.81; #10 HY 6 hr (mRNA expression level) [1]: 10.9; #10 HY 18 hr (mRNA expression level) [1]: 11.79; #10 NO (mRNA expression level) [1]: 4.63; #11 HY 6 hr (mRNA expression level) [1]: 2.23; #11 HY 18 hr (mRNA expression level) [1]: 1.65; #11 NO (mRNA expression level) [1]: 1.85; HIGHEST FOLD CHANGE IN HYPOXIA (hr hypoxia + cell type) ([1]; 18 hr renal epithelial): 2.55 (18 hr renal epithelial) fold; mRNA EXPRESSION (experimental condition) #1 (human macrophages; [2]): 0.58; mRNA EXPRESSION (experimental condition) #2 (human macrophages; [2]): 0.71; mRNA EXPRESSION (experimental condition) #3 (human macrophages; [2]): 1.00; mRNA EXPRESSION (experimental condition) #4 (human macrophages; [2]): 1.32; mRNA EXPRESSION (experimental condition) #5 (human macrophages; [2]): 1.56; mRNA EXPRESSION (experimental condition) #6 (human macrophages; [2]): 2.59
2 | p1E1 (nucleic acid, listed as Homo Sapiens, EST array clone) DNA: TTTTGGTCTGAGAATGATGGACATTTAGACACTGGCGCCAGGTTTGCGCTGGACCGGCGCACGCAGGGGTTGGGCGGACGAAAGACACACAGGTGGGCTACAGGTGTCACACGGCACCAGCCAGGGCCCGGGGTGGCTGGGGTGAGGATGGGTGTTTGGCCAGTGACCAGGAGTCAGGTCAAGTCCAGGTGGTCAGTGCCAGGGGTCCCAGGAGGGGAGGGCAGTGCATTAACCCTCCTGGTGTCCAGCGTCACCAGGCGGTCGTCACAGAAAGCAACCTCGGCCCGGGGCCG | 1.31 | 2.14 | 2.91 | 6.21 | 2.25 | 3.07 | 2.11 | 1.28 | 1.08 | 1.01 | 1.21 | 1.02 | 0.80 | 0.56 | 1.16 | 1.25 | 0.64 | 0.42 | 0.29 | 0.29 | #8 HY 6 hr (mRNA expression level) [1]: 0.47; #8 HY 18 hr (mRNA expression level) [1]: 0.91; #8 NO (mRNA expression level) [1]: 0.28; #9 HY 6 hr (mRNA expression level) [1]: 1.24; #9 HY 18 hr (mRNA expression level) [1]: 0.88; #9 NO (mRNA expression level) [1]: 1.03; #10 HY 6 hr (mRNA expression level) [1]: 0.61; #10 HY 18 hr (mRNA expression level) [1]: 0.60; #10 NO (mRNA expression level) [1]: 0.32; #11 HY 6 hr (mRNA expression level) [1]: 4.39; #11 HY 18 hr (mRNA expression level) [1]: 2.33; #11 NO (mRNA expression level) [1]: 3.03; HIGHEST FOLD CHANGE IN HYPOXIA (hr hypoxia + cell type) ([1]; 6 hr cardiomyocyte): 3.24 (6 hr cardiomyocyte) fold; mRNA EXPRESSION (experimental condition) #1 (human macrophages; [3]): 1.21; mRNA EXPRESSION (experimental condition) #2 (human macrophages; [3]): 1.64; mRNA EXPRESSION (experimental condition) #3 (human macrophages; [3]): 0.94; mRNA EXPRESSION (experimental condition) #4 (human macrophages; [3]): 1.35; mRNA EXPRESSION (experimental condition) #5 (human macrophages; [3]): 0.51; mRNA EXPRESSION (experimental condition) #6 (human macrophages; [3]): 0.63
